Experiment [1] addresses T1, porcine kidney aminopeptidase N (APN), purified (Sigma) (porcine (Sus scrofa), UniProt P15145 33-963, biotinylated (1:3 ratio) when used as ligand in BLI).
T1 construct: Used coated in ELISA and biotinylated on SAX biosensors in BLI; also called purified kidney APN; porcine APN
T1 sequence: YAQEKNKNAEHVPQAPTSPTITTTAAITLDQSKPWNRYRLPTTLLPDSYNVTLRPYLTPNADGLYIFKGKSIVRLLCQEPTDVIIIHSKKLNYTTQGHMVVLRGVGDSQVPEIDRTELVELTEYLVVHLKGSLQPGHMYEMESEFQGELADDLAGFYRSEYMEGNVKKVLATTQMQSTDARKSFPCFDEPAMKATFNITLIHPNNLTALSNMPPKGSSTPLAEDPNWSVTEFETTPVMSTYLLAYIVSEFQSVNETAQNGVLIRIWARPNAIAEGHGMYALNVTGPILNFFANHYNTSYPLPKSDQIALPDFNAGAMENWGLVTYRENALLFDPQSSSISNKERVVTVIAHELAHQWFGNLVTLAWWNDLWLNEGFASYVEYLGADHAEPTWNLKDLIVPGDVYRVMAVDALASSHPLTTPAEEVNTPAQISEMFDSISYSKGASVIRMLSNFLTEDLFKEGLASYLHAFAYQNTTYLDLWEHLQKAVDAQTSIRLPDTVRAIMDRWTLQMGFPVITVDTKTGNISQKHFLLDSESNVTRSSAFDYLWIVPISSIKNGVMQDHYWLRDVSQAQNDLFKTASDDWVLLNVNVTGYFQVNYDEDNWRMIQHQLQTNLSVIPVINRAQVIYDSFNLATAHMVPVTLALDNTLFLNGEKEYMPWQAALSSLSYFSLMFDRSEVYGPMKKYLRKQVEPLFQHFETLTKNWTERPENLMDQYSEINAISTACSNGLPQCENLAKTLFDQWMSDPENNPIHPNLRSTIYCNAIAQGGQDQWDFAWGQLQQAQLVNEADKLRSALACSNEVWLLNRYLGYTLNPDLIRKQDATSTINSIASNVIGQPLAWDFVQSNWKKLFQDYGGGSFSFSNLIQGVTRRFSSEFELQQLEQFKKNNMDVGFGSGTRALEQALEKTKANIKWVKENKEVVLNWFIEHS
Put plainly: BLI (Octet RED96), biotinylated porcine APN on SAX biosensor, mAb at 100 nM, 1:1 local full fit. (BLI is a label-free optical method that tracks binding on a fibre tip over time.)

The target in experiment [2] is T1, porcine kidney aminopeptidase N (APN), …. Put plainly: bio-layer interferometry, biotinylated porcine APN on SAX biosensor, series of analyte concentrations (not labelled on the sheet).

B1: α-APN-mIgG1 (clone IMM013), APN-specific mouse IgG1 monoclonal antibody (antibody)
heavy: QAYLQQSGAELVRSGASVKMSCKASGYTFTSYNMHWVKQTPGQGLEWIGYIYPGNGDINYNQKFKGKATLTADTSSNTAYMQISSLTSEDSAVYFCARGGVFDYWGQGTTLIVSSAKTTPPSVYPLAPGSAAQTNSMVTLGCLVKGYFPEPVTVTWNSGSLSSGVHTFPAVLQSDLYTLSSSVTVPSSTWPSETVTCNVAHPASSTKVDKKIVPRDCGCKPCICTVPEVSSVFIFPPKPKDVLTITLTPKVTCVVVDISKDDPEVQFSWFVDDVEVHTAQTQPREEQFNSTFRSVSELPIMHQDWLNGKEFKCRVNSAAFPAPIEKTISKTKGRPKAPQVYTIPPPKEQMAKDKVSLTCMITDFFPEDITVEWQWNGQPAENYKNTQPIMDTDGSYFVYSKLNVQKSNWEAGNTFTCSVLHEGLHNHHTEKSLSHSPGK
light: QIVLTQSPAIVSASPGEKVTITCSGSSSVNYMHWFQQKPGTSPKLWIYSTSNLASGVPGRFSGSGSGTSYSLTISRMEAEDAATYYCQQRTSYPYTFGGGTKLEIKRADAAPTVSIFPPSSEQLTSGGASVVCFLNNFYPKDINVKWKIDGSERQNGVLNSWTDQDSKDSTYSMSSTLTLTKDEYERHNSYTCEATHKTSTSPIVKSFNRNEC
notes: Purified from hybridoma supernatant by protein G; also called IMMO13; α-APN mAb (clone IMM013)
Regarding B1, the Kd (usually the concentration at which binding is half-saturated) in experiment [1] came to 1.6 nM; in experiment [2], 1.4 nM.

B2: α-APN-mIgG1-FedF fusion construct (clone IMM013 mouse IgG1 with FedF15-165 fused to the heavy chain) (other)
heavy: QAYLQQSGAELVRSGASVKMSCKASGYTFTSYNMHWVKQTPGQGLEWIGYIYPGNGDINYNQKFKGKATLTADTSSNTAYMQISSLTSEDSAVYFCARGGVFDYWGQGTTLIVSSAKTTPPSVYPLAPGSAAQTNSMVTLGCLVKGYFPEPVTVTWNSGSLSSGVHTFPAVLQSDLYTLSSSVTVPSSTWPSETVTCNVAHPASSTKVDKKIVPRDCGCKPCICTVPEVSSVFIFPPKPKDVLTITLTPKVTCVVVDISKDDPEVQFSWFVDDVEVHTAQTQPREEQFNSTFRSVSELPIMHQDWLNGKEFKCRVNSAAFPAPIEKTISKTKGRPKAPQVYTIPPPKEQMAKDKVSLTCMITDFFPEDITVEWQWNGQPAENYKNTQPIMDTDGSYFVYSKLNVQKSNWEAGNTFTCSVLHEGLHNHHTEKSLSHSPGKGGGGSGGGGSGGGGSNSSASSAQVTGTLLGTGKTNTTQMPALYTWQHQIYNVNFIPSSSGTLTCQAGTILVWKNGRETQYALECRVSIHHSSGSINESQWGQQSQVGFGTACGNKKCRFTGFEISLRIPPNAQTYPLSSGDLKGSFSLTNKEVNWSASIYVPAIAK
light: QIVLTQSPAIVSASPGEKVTITCSGSSSVNYMHWFQQKPGTSPKLWIYSTSNLASGVPGRFSGSGSGTSYSLTISRMEAEDAATYYCQQRTSYPYTFGGGTKLEIKRADAAPTVSIFPPSSEQLTSGGASVVCFLNNFYPKDINVKWKIDGSERQNGVLNSWTDQDSKDSTYSMSSTLTLTKDEYERHNSYTCEATHKTSTSPIVKSFNRNEC
notes: also called FedF-linked α-APN-mIgG1; aAPN-mIgG1-FedF
As to B2, the Kd in experiment [2] turned out to be 5.1 nM.

These data come from patent US20240392036A1 (UNIVERSITEIT GENT, published 2024).
